Assay results as given in patent US20240158480A1 (ACADEMY OF MILITARY MEDICAL SCIENCE PLA, published 2024).

T1: NiV-MY G (Nipah virus, Malaysia strain (NiV-MY), UniProt Q9IH62 71-602)
T1 construct: also called G protein of NiV-MY; Malaysia Nipah virus glycoprotein G
T1 sequence: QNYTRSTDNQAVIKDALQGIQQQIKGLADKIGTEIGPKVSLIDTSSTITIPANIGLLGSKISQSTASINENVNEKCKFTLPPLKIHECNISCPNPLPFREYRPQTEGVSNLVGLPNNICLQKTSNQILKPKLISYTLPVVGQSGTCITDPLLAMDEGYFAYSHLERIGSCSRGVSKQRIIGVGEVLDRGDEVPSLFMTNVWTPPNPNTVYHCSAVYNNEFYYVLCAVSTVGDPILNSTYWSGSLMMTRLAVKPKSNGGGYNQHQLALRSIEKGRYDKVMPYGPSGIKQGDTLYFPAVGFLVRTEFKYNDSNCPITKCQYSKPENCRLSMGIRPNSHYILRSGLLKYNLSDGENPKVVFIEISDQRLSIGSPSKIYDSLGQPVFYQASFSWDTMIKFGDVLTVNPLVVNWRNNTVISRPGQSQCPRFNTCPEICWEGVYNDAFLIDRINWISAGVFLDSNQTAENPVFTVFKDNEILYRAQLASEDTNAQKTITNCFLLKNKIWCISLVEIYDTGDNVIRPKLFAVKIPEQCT


Legend:
[1] = molecular target: NiV-BD G (Nipah virus, Bangladesh strain (NiV-BD)); experiment: cell-based or functional assay
NiV-MY G [2] = molecular target: T1, NiV-MY G; experiment: ELISA, G protein coated at 1 µg/mL, antibody titrated 1:3 from 20 µg/mL
[3] = molecular target: NiV-BD G (Nipah virus, Bangladesh strain (NiV-BD)); experiment: as above
NiV-MY G [4] = molecular target: T1, NiV-MY G; experiment: cell-based or functional assay

Binder	neutralization of HIV-NiV-BD pseudovirus (luciferase, 293T cells) [1] [%]	EC50 (NiV-MY G [2]) [µg/mL]	EC50 [3] [µg/mL]	half inhibiting concentration (IC50), NiV-MY pseudovirus neutralization (NiV-MY G [4]) [µg/mL]
2B6 (antibody, V domains shown, also called antibody 2B6; monoclonal antibody 2B6; copies: 2 + 2) VH: QVQLVQSGAEVKKPGASVKLSCKASGYTFTSFYINWVRQAPGQVLEWMGWINPSNGDTGYAQKFQGRVTMSRDTSTSTAYMELSSLRSEDTAVYYCTRETVGSGTFDCWGQGVLVTVSS VL: DIVMTQTPLSLSVTLGEPASISCRSSQSLVYSAGKTYLDWYLQKPGQSPQLLIYLVSKRASGVPDKFSGSGSGTDFTLKISRVEAEDVGVYYCMQALRSPLTFGGGTKVELK	100	0.00956	0.0054	0.0283
1D11 (antibody, V domains shown, also called antibody 1D11; monoclonal antibody 1D11; copies: 2 + 2) VH: EVQLVESGGGLVQPGGSLRLSCAASGFTFSSYDMSWVRQAPGKGLEWVSSISSVTSYISYADSVKGRFTISRDNAKNSLSLQMNSLKTEDTAVYYCTTENWNFDFWGQGVLVTVSS VL: DVVMTQSPLSLATTPGQPASISCRSSQSLVHSNGNTYLSWYQQKPGQPPRLLIYEVSNRDSGVPDRFSGSGAGTDFTLKISRVEAEDVGVYYCGQGTHWPPFTFGPGTKLDIK	100	0.0202	0.00991	0.0579
1F9 (antibody, V domains shown) VH: QVQLQESGPGLVKPSETLSLSCAVSGGSFSDYWWGWIRQSPGKGLEWIGSIYGSSGRTAYSPSLKSRATISRDTSKNQLFLRLTSVTAADTGVYYCTNERFYGDSNRFDVWGPGVLVTVSS VL: QPVLTQPTSLSASPGASARLTCTLSSGISVGNYRIFWYQQKPGSPPRYLLNYHTDSDKHQGSGVPSRFSGSKDASANAGILLISGLQSEDEADYYCMIWHNNVDVFGGGTKLTVLR	100	–	0.015	–
1A9 (antibody, V domains shown) VH: VQLQESGPGLVKPSETLSLTCAVSGDSISTGYDWTWIRQPPGKGLEWIGYIGGSSGNTNYNPSLKSRVTISKDTSKNQFSLKLSSVTAADTAVYYCARDGTRVYYYGLDSWGQGVVVTVSS VL: ETVVTQEPSLSVSPGGTVTLTCGLSSGSVSTSNYPSWFQQTPGQAPRMLIYSTNIRPSGVPNRFSGSILGNKAALTITGAQADDESDYYCFFSMVSGTSVFGGGTRLTVLR	–	–	0.0183	–
